Experimental data reported in patent publication US20250066451A1 (SWEDISH ORPHAN BIOVITRUM AB PUBL, published 2025).

Legend:
[1] = target: T1, Human IL-1R-I-Fc (Creative BioMart cat. no. IL1RI-771H) (human, UniProt P14778 18-332, limits assumed); test: ELISA titration; Z-ABD periplasmic extract, hIL-1R-I-Fc 100-0.01 nM
T1 construct: Bought protein; also called hIL-1R-I-Fc; hIL-1RI-Fc; not shown: Fc part of the bought fusion
T1 sequence (looked up): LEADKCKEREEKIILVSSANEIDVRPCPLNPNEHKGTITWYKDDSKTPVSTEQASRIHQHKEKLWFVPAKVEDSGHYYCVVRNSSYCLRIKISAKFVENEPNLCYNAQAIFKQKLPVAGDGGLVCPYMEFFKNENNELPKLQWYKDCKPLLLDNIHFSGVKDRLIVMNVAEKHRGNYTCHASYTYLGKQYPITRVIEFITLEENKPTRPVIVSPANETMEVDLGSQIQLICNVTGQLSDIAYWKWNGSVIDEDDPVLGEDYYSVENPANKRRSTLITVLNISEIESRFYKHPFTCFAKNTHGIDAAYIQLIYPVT

[2] = target: T1, Human IL-1R-I-Fc (Creative BioMart cat. …); test: ELISA screening, periplasmic extract

B1: Z12917 as Z-ABD fusion (periplasmic extract) (designed binder)
chain: AQHDEALEVDAKYAKEARQAYAEIYLLPNLTRRQYTAFIRKLLDDPSQSSELLSEAKKLNDSQAPKVDYVLAEAKVLANRELDKYGVSDYYKNLINNAKTVEGVKALIDEILAALPYVPG
Q: Which EC50 [1] does the source give for B1 here?
A: 0.33 nM

B2: ABD001 (wild type albumin binding domain), periplasmic extract (other)
chain: LAEAKVLANRELDKYGVSDYYKNLINNAKTVEGVKALIDEILAALP
notes: Negative control; also called ABD negative control
Q: Does B2 bind [2]?
A: no binding (tested: 1 nM hIL-1R-I-Fc)
